Measured values as given in article PMC4674489.

Biological target: GST-PTN(60-110) fusion protein (human)
Assay: pull-down

GST-PTN(60-110) fusion protein (human), sequence (P21246 60-110): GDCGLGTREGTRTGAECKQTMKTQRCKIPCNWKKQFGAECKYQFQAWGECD

Neuropilin-1 (NRP-1), endogenous (from UniProt O14786 22-923) (receptor)
NRP-1 pulled down, percent of that with GST-PTN(1-136): 45%
